Measured values as given in PMC2761489.

What was measured:
[1] = molecular target: Microtubule extensions grown from free porcine brain tubulin with GTP (GDP-tubulin lattice with growing ends) (porcine) (UniProt P02550); assay: two-color TIRF microscopy; GMPCPP seeds immobilised on coverslips (biotin-neutravidin or anti-rhodamine antibodies); 50 nM EB1-GFP with 12 uM free tubulin (10-24 uM in other runs) and 1 mM GTP in Imaging Buffer (BRB80, glucose, glucose-oxidase, catalase, casein, beta-mercaptoethanol), no additional salt; 35 C
[2] = molecular target: GMPCPP microtubules (GMPCPP-tubulin microtubule lattice; seeds and GMPCPP-grown extensions) of porcine brain tubulin (porcine) (UniProt P02550); assay: as above

average fluorescence intensity, extension minus background [1]: 12.8 AU
average fluorescence intensity, seed minus background [2]: 62.6 AU
Substance: C-terminus GFP-tagged EB1 (from UniProt Q15691 1-268) (natural protein)
